Measurements taken from patent US20190144550A1 (Pfizer, published 2019).

Legend:
EGFR-mFc [1] = molecular target: T1, EGFR-mFc (human; mouse, UniProt P00533 25-645); experiment: flow cytometry, CAR T cells on Day 4 after transduction incubated with EGFR-mFc, then PE-labeled goat anti-mouse Fc
T1 construct: extracellular domain; Produced in HEK293 cells; also called recombinant EGFR-mFc; not shown: mouse IgG1-Fc domain
Description: (§1) To determine target binding specificity of the CARs, recombinant proteins EGFRvII-mFc and EGFR-mFc, which comprise of the extracellular domain of either human EGFRvIII or human wild-type EGFR, respectively, fused with mouse IgG1-Fc domain, were produced in HEK293 cells. […]

[2] = molecular target: T2, 8-histidine tagged recombinant wild-type protein EGFRwt (UniProt P00533 25-645, limits assumed); experiment: SPR, captured by anti-human Fc
T2 construct: not shown: 8-histidine tag

[3] = molecular target: T3, Monomeric 8-histidine tagged human EGFRvIII extracellular domain (human, UniProt P00533 298-645); experiment: SPR, captured by anti-human Fc, 37 C
T3 construct: Analyte in all SPR assays; not shown: 8-histidine tag
Description: (§2) Anti-EGFRvII mouse (m) antibody, m62G7, generated from hybridomas was sequenced and subcloned into suitable vectors for expression as murine-human chimeric antibodies. The CDRs of mouse antibody m62G7 were grafted onto human framework and expressed as human IgG1 recombinant antibody, h62G7. Affinity variants of h62G7 were made by introducing mutations in the CDRs of the heavy and light chains. The affinities of recombinant anti-EGFRvIII chimeric antibody m62G7 and humanized h62G7 antibodies were measured on a surface plasmon resonance Biacore™ T200 biosensor equipped with a research-grade anti-human Fc coupled CM4 sensor chip (GE Healthcare Inc., Piscataway, N.J.). Anti-EGFRvII antibodies were then captured by anti-human Fc. Monomeric 8-histidine tagged human EGFRvIII extracellular domain was then injected as the analyte at 10-fold dilution series with top concentration at 1000 nM. Affinity of anti-EGFRvIII antibodies towards human EGFRvIII was measured at both 25° C. and 37° C.

[4] = molecular target: T3, Monomeric 8-histidine tagged human …; experiment: SPR, captured by anti-human Fc, 25 C
Description: as §2

EGFR-mFc [5] = molecular target: T1, EGFR-mFc; experiment: flow cytometry, CAR T cells stained with mFc fusion protein, Day 4
Description: as §1

[6] = molecular target: T3, Monomeric 8-histidine tagged human …; experiment: SPR, captured by anti-human Fc, 25 C; remark: listed apart in the source
Method: Human anti-EGFRvIII antibodies were sequenced and subcloned into suitable vectors for expression as recombinant human IgG1 antibodies. […] (Table 9) on a surface plasmon resonance Biacore™ T200 biosensor equipped with an anti-human Fc coupled CM4 sensor chip (GE Healthcare Inc., Piscataway, N.J.). Anti-EGFRvII antibodies were captured by anti-human Fc. Monomeric 8-histidine tagged human EGFRvIII extracellular domain was then injected as the analyte at 10-fold dilution series starting at 1000 nM.

B1: C6 EGFRvIII specific CAR (other)
chain: QVQLVQSGAEVKKPGSSVKVSCKASGDTFSSNAISWVRQAPGQGLEWMGVIIPIFGTADYAQKFQGRVTITADESTSTAYMELSSLRSEDTAVYYCARHTYHEYAGGYYGGAMDPWGQGTLVTVSSGGGGSGGGGSGGGGSGGGGSELQSVLTQPPSASGTPGQRVTISCSGSSSNIGSNYVYWYQQLPGTAPKILIYRNNQRPSGVPDRFSGSKSGTSASLAISGLRSEDEADYYCAAWDDNLSGWVFGTGTKLTVLTTTPAPRPPTPAPTIASQPLSLRPEACRPAAGGAVHTRGLDFACDIYIWAPLAGTCGVLLLSLVITLYCKRGRKKLLYIFKQPFMRPVQTTQEEDGCSCRFPEEEEGGCELRVKFSRSADAPAYQQGQNQLYNELNLGRREEYDVLDKRRGRDPEMGGKPRRKNPQEGLYNELQKDKMAEAYSEIGMKGERRRGKGHDGLYQGLSTATKDTYDALHMQALPPR
notes: Chimeric antigen receptor on primary human T cells; also called EGFRvIII specific clone C6 CAR
binding result (EGFR-mFc [1]): binds

B2: m62G7 (antibody, V domains shown)
VH: EVQLQQSGPELVKPGASVKISCKTSGYTFTDYTLHWVKQSHVKSLEWIGGIDPINGGTTYNQKFKGKATLTVDKSSSTAYMELRSLTSEDSAVYYCARGEAMDSWGQGTSVTVSS
VL: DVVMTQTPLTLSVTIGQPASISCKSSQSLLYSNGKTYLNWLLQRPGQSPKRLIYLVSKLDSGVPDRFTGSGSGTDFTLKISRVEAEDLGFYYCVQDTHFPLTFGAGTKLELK
notes: Tested as murine-human chimeric antibody, captured by anti-human Fc; also called recombinant anti-EGFRvIII chimeric antibody m62G7
binding result [2]: no binding (tested: 1000 nM)
Kd [3]: 207 nM
koff [3]: 0.17 s⁻¹
kon [3]: 800000 M⁻¹ s⁻¹
Kd [4]: 88.7 nM
koff [4]: 0.064 s⁻¹
kon [4]: 730000 M⁻¹ s⁻¹

B3: 42G9 EGFRvIII specific CAR (other)
chain: QVTLKESGPVLLKPTETLTLTCTVSGFSLSNPRMGVSWIRQPPGKALEWFAHIFSTDEKSLKLSLRSRLTLSKDTSKSQVVLTMTNMAPVDSATYYCARDSSNYEGYFDFWGQGTLVTVSSGGGGSGGGGSGGGGSGGGGSEVVLTQSPATLSVSPGERATLSCRASQSVRSNLAWYQQKSGQAPRLLIYGSTIRATGVPARFSGSGSGTEFTLTISSLQSEDFAVYYCQQYSDWPFTFGPGTKVDIKTTTPAPRPPTPAPTIASQPLSLRPEACRPAAGGAVHTRGLDFACDIYIWAPLAGTCGVLLLSLVITLYCKRGRKKLLYIFKQPFMRPVQTTQEEDGCSCRFPEEEEGGCELRVKFSRSADAPAYQQGQNQLYNELNLGRREEYDVLDKRRGRDPEMGGKPRRKNPQEGLYNELQKDKMAEAYSEIGMKGERRRGKGHDGLYQGLSTATKDTYDALHMQALPPR
notes: Chimeric antigen receptor on primary human T cells
binding result (EGFR-mFc [5]): no binding

B4: 32A10 EGFRvIII specific CAR (other)
chain: QVTLKESGPVLVKPTETLTLTCTVSGFSLSNARMGVSWIRQPPGKALEWLAHIFSTDEKSIRRSLRSRLTLSKDTSKSQVVLTMTNMDPVDTATYFCARDSSNYEGYFDYWGQGTLVTVSSGGGGSGGGGSGGGGSGGGGSEVVMTQSPATLSVSPGERVTLSCRASQSVSSNFAWYQQRPGQAPRLLLYGATTRATGLPGRFSGSGSGTENILTISSLQSEDFAIYFCQQYKDWPFTFGPGSKVDIKTTTPAPRPPTPAPTIASQPLSLRPEACRPAAGGAVHTRGLDFACDIYIWAPLAGTCGVLLLSLVITLYCKRGRKKLLYIFKQPFMRPVQTTQEEDGCSCRFPEEEEGGCELRVKFSRSADAPAYQQGQNQLYNELNLGRREEYDVLDKRRGRDPEMGGKPRRKNPQEGLYNELQKDKMAEAYSEIGMKGERRRGKGHDGLYQGLSTATKDTYDALHMQALPPR
notes: as for B3
binding result (EGFR-mFc [5]): no binding

B5: 26B9 EGFRvIII specific CAR (other)
chain: EVQLVESWGVLVKPGGSLRLSCAASGFIFNNAWMSWVRQAPGKGLEWIGRIKSKSDGGTTDYAAPVKDRFTISRDDSKDTLYLQMNGLKTEDTAVYFCTTAPGGPFDYWGQGTLVTVSSGGGGSGGGGSGGGGSGGGGSDIVLTQSPLSLPVTPGEPASISCRSSQSLLHRDGFNYLDWFLQKPGQSPQLLIYLASSRASGVPDRFSGSDSGTDFTLKISRVEAEDVGVYYCMQALQTPITFGQGTRLEIKTTTPAPRPPTPAPTIASQPLSLRPEACRPAAGGAVHTRGLDFACDIYIWAPLAGTCGVLLLSLVITLYCKRGRKKLLYIFKQPFMRPVQTTQEEDGCSCRFPEEEEGGCELRVKFSRSADAPAYQQGQNQLYNELNLGRREEYDVLDKRRGRDPEMGGKPRRKNPQEGLYNELQKDKMAEAYSEIGMKGERRRGKGHDGLYQGLSTATKDTYDALHMQALPPR
notes: as for B3
binding result (EGFR-mFc [5]): no binding

B6: 30D8 EGFRvIII specific CAR (other)
chain: EVQLVESGGGLVKPGGSLRLSCEASGFTFSDAWMSWVRQAPGKGLEWVGRIKSKTDGGTTDYVVPLNGRFIISRDDSRNTLYLQLNNLKTEDTAVYYCTTVPGSYGYWGQGTLVTVSSGGGGSGGGGSGGGGSGGGGSDIVMTQSPLSLPVTPGEPASISCRSSQSLLHNKRNNYLDWFLQKPGQSPQLLIYLASNRASGVPDRFSGGGSGTDFTLKISRVEAEDVGVYYCMQAQQTPITFGQGTRLEIKTTTPAPRPPTPAPTIASQPLSLRPEACRPAAGGAVHTRGLDFACDIYIWAPLAGTCGVLLLSLVITLYCKRGRKKLLYIFKQPFMRPVQTTQEEDGCSCRFPEEEEGGCELRVKFSRSADAPAYQQGQNQLYNELNLGRREEYDVLDKRRGRDPEMGGKPRRKNPQEGLYNELQKDKMAEAYSEIGMKGERRRGKGHDGLYQGLSTATKDTYDALHMQALPPR
notes: as for B3
binding result (EGFR-mFc [5]): no binding

B7: C6 (antibody, V domains shown)
VH: QVQLVQSGAEVKKPGSSVKVSCKASGDTFSSNAISWVRQAPGQGLEWMGVIIPIFGTADYAQKFQGRVTITADESTSTAYMELSSLRSEDTAVYYCARHTYHEYAGGYYGGAMDPWGQGTLVTVSS
VL: not shown
notes: From a phage library; recombinant human IgG1
Kd [6]: 532 nM
koff [6]: 0.00894 s⁻¹
kon [6]: 16800 M⁻¹ s⁻¹

B8: h62G7-EQ/L6 (antibody, V domains shown)
VH: QVQLVQSGAEVKKPGASVKVSCKASGYTFTDYTLHWVRQAPGQGLEWMGGIWPITGGTTYNQKFKGRVTMTRDTSTSTVYMELSSLRSEDTAVYYCARGEAQGSWGQGTLVTVSS
VL: DVVMTQSPLSLPVTLGQPASISCKSSQSLLYSNGKTYLNWFQQRPGQSPRRLIYQVSKLDSGVPDRFSGSGSGTDFTLKISRVEAEDVGVYYCGQDTHFPLTFGGGTKVEIK
notes: Humanized, human IgG1 recombinant antibody; also called h62G7-L6/EQ
binding result [2]: no binding (tested: 1000 nM)
Kd [3]: 113 nM
koff [3]: 0.074 s⁻¹
kon [3]: 660000 M⁻¹ s⁻¹
Kd [4]: 43.8 nM
koff [4]: 0.01 s⁻¹
kon [4]: 240000 M⁻¹ s⁻¹

B9: h62G7-H14/L6 (antibody, V domains shown)
VH: QVQLVQSGAEVKKPGASVKVSCKASGYTFTDYTLHWVRQAPGQGLEWMGGIWPITGGTTYNQKFKGRVTMTRDTSTSTVYMELSSLRSEDTAVYYCARGEAEGSWGQGTLVTVSS
VL: DVVMTQSPLSLPVTLGQPASISCKSSQSLLYSNGKTYLNWFQQRPGQSPRRLIYQVSKLDSGVPDRFSGSGSGTDFTLKISRVEAEDVGVYYCGQDTHFPLTFGGGTKVEIK
notes: Human IgG1
binding result [2]: no binding (tested: 1000 nM)
Kd [3]: 1580 nM
koff [3]: 0.068 s⁻¹
kon [3]: 43000 M⁻¹ s⁻¹
Kd [4]: 992 nM
koff [4]: 0.013 s⁻¹
kon [4]: 13000 M⁻¹ s⁻¹

B10: h62G7-H14/L1-DV (antibody, V domains shown)
VH: QVQLVQSGAEVKKPGASVKVSCKASGYTFTDYTLHWVRQAPGQGLEWMGGIWPITGGTTYNQKFKGRVTMTRDTSTSTVYMELSSLRSEDTAVYYCARGEAEGSWGQGTLVTVSS
VL: DVVMTQSPLSLPVTLGQPASISCKSSQSLLYSNDKTYTNWFQQRPGQSPRRLIYEVSKLDVGVPDRFSGSGSGTDFTLKISRVEAEDVGVYYCGQDTHFPLTFGGGTKVEIK
notes: Humanized, human IgG1 recombinant antibody
binding result [2]: no binding (tested: 1000 nM)
Kd [3]: 1540 nM
koff [3]: 0.1 s⁻¹
kon [3]: 66000 M⁻¹ s⁻¹
Kd [4]: 1090 nM
koff [4]: 0.02 s⁻¹
kon [4]: 18000 M⁻¹ s⁻¹

B11: B5 (antibody, V domains shown)
VH: EVQLLESGGGLVQPGGSLRLSCAASGFTFSNYAMSWVRQAPGKGLEWVSDISGGGGRTYYADSVKGRFTISRDNSKNTLYLQMNSLRAEDTAVYYCARAGLLYGGGVYPMDIWGQGTLVTVSS
VL: not shown
notes: as for B7
Kd [6]: 678 nM
koff [6]: 0.0141 s⁻¹
kon [6]: 20800 M⁻¹ s⁻¹

B12: 20E12 EGFRvIII specific CAR (other)
chain: EVNLVESGGGLVKPGGSLRLSCEASGFTFSYAWMSWVRQAPGKGLEWVGRIKSIADGGATDYAAPVRNRFTISRDDSRNTLYLEMHSLKTEDTAVYYCTTIPGNDAFDMWGQGTMVTVSSGGGGSGGGGSGGGGSGGGGSDIVLTQSPLSLSVTPGEPASISCRSSQSLLYSNGKNYLDWFLHKPGQSPQLLIYLGSNRASGVPDRFSGSGSGIDFILKISRVEAEDVGVYYCMQAQQTPITFGQGTRLEIKTTTPAPRPPTPAPTIASQPLSLRPEACRPAAGGAVHTRGLDFACDIYIWAPLAGTCGVLLLSLVITLYCKRGRKKLLYIFKQPFMRPVQTTQEEDGCSCRFPEEEEGGCELRVKFSRSADAPAYQQGQNQLYNELNLGRREEYDVLDKRRGRDPEMGGKPRRKNPQEGLYNELQKDKMAEAYSEIGMKGERRRGKGHDGLYQGLSTATKDTYDALHMQALPPR
notes: as for B3
binding result (EGFR-mFc [5]): no binding
